This experiment concerns the target human TMEM119 (transmembrane protein 119) (human) (UniProt Q4V9L6). Briefly: flow cytometry on primary human brain cell suspensions. For orientation: Flow cytometry measures light scatter and fluorescence of single cells or particles in a stream.
UniProt Q4V9L6, sequence (Q4V9L6 26-283): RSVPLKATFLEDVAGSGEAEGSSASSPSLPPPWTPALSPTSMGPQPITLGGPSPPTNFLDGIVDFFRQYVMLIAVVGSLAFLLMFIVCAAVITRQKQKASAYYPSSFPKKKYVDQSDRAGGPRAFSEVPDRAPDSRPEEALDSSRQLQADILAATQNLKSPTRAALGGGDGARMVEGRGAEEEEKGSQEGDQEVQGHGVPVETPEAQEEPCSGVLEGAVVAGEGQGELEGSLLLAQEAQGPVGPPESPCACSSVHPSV

Substance “Mouse anti-hTMEM119 monoclonal clone A16075D (antibody)” gave a percent of CD45+/CD11B+ human brain cells stained of 70 to 98%.

Source of the values: patent publication US20260028587A1.
